Experiment in all cases: fluorescence polarization
What all share (details): internal 6-carboxyfluorescein in backbone between U12 and C13 (central tetraloop bases); 25 mM MOPS pH 7.4, 150 mM KCl, 2 mM DTT, 2 mM MgCl2, 0.01% Triton X-100, 1 nM RNA, room temperature, 1 h
(In general: In fluorescence polarisation assays a small probe gives low polarisation when free and higher when bound to something large.)

Series [1] concerns the target T1, RIG-I Q784A Q784A (Homo sapiens) (UniProt O95786).
T1 sequence: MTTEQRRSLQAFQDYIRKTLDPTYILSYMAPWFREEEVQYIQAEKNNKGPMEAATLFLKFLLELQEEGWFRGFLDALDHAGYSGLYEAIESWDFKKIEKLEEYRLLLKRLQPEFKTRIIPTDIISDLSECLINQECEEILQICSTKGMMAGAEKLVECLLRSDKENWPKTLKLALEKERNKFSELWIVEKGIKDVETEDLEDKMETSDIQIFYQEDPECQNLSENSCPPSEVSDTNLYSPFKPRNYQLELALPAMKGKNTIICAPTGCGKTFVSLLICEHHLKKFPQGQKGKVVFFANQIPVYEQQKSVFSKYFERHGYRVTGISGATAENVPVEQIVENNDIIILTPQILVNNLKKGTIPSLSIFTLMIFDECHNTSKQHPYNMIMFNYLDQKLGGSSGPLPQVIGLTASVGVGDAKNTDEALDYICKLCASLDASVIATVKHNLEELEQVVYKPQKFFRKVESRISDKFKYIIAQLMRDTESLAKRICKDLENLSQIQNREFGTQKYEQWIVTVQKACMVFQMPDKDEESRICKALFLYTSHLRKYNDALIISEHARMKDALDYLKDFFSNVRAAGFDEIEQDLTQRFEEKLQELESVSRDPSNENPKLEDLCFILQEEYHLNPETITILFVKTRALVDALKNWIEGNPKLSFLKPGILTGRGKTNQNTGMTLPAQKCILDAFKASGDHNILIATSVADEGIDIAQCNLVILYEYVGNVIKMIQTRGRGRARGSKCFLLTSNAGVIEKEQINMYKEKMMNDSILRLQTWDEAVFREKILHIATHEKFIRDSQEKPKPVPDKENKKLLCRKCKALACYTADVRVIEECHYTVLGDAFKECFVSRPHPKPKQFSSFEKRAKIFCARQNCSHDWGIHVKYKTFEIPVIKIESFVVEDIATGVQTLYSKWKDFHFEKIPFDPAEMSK

For series [2], the target named is T2, RIG-I Q784A/K788A Q784A;K788A (Homo sapiens) (UniProt O95786).
T2 sequence: T1 sequence with K788A

Series [3] deals with T3, RIG-I R791A R791A (Homo sapiens) (UniProt O95786).
T3 sequence: T1 sequence with A784Q, R791A

Changes are numbered by the printed parent chain.

In PMC4191399 one finds Kd data, which are given here for one sequence.

On to GGACGUACGUUUCGACGUACGUCC [5'OH10L-F], for which the values for the Kd in series [1], in series [2] and in series [3] were 23.8 nM, 85.8 nM and 50.7 nM, respectively.

The term Kd denotes the concentration at which binding is half-saturated.
